Here are results for two substances from patent publication US7462599.

For data set [1], the system named is T1, H-Gln-cyclo(Nε-Lys-Arg-Pro-Ala-Gly-Phe).
T1 sequence: QKRPAGF

The next data set concerns T2, H-Gln-Gly-Pro-OH.
T2 sequence: QGP

For a further data set, the system named is T3, H-Gln-Ala-Ala-NH2.
T3 sequence: QAA

The subject of another data set is T4, H-Gln-Gln-Tyr-Phe-NH2.
T4 sequence: QQYF

Another data set concerns T5, H-Gln-Ser-Tyr-Phe-NH2.
T5 sequence: QSYF

A further data set concerns T6, H-Gln-Glu-Ala-Phe-NH2.
T6 sequence: QEAF

The test system of data set [2] is T7, [Gln^5]-substance P(5-11).
T7 sequence: QQFFGLM

Another data set relates to T8, H-Gln-Glu-OH.
T8 sequence: QE

Another data set relates to T9, H-Gln-Glu-Asp-Leu-NH2.
T9 sequence: QEDL

Data set [3] has as its system T10, H-Gln-Ala-Ala-Ser-Ala-Ala-NH2.
T10 sequence: QAASAA

Another data set has as its system T11, H-Gln-Glu-Tyr-Ala-NH2.
T11 sequence: QEYA

The next data set relates to T12, H-Gln-Asn-Gly-Ile-NH2.
T12 sequence: QNGI

A further data set has as its system T13, H-Gln-Lys-Arg-Leu-NH2.
T13 sequence: QKRL

A further data set deals with T14, [Gln^1]-FPP.
T14 sequence: QEP

Data set [4] has as its system T15, H-Gln(NMe)-Phe-Lys-Ala-Glu-NH2.
T15 sequence: QFKAE

The test system of the next data set is T16, H-Gln-Ala-OH.
T16 sequence: QA

The next data set has as its system T17, H-Gln-Glu-Tyr-NH2.
T17 sequence: QEY

The subject of a further data set is T18, H-Gln-Ala-NH2.
T18 sequence: QA

For a further data set, the target named is [Gln^3]-glucagon(3-29) (UniProt P01275).
[Gln^3]-glucagon(3-29), sequence (P01275 23-49): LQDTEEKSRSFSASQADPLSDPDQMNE
The next data set concerns T19, H-Gln-Arg-Gly-Ile-NH2.
T19 sequence: QRGI

The next data set has as its system T20, H-Gln-Pro-Tyr-Phe-NH2.
T20 sequence: QPYF

Data set [5] deals with T21, H-Gln-Ala-Ala-Ala-Ala-NH2.
T21 sequence: QAAAA

Data set [6] relates to T22, H-βhomoGln-Phe-Lys-Arg-Leu-Ala-NH2.
T22 sequence: QFKRLA

For another data set, the system named is T23, [Gln^1]-Gastrin.
T23 sequence: QGPWLEEEEEAYGWMDF

The subject of a further data set is T24, [Gln^1]-GnRH.
T24 sequence: QHWSYGLRPG

The next data set has as its system T25, H-Gln-Glu-Ala-Ala-NH2.
T25 sequence: QEAA

A further data set deals with T26, H-Gln-Gly-OH.
T26 sequence: QG

In the next data set the test system is T27, H-Gln-Gln-OH.
T27 sequence: QQ

The subject of the next data set is T28, H-Gln-Glu-Tyr-Phe-NH2.
T28 sequence: QEYF

The next data set relates to T29, H-Gln-Phe-Ala-NH2.
T29 sequence: QFA

The next data set deals with T30, H-Gln-His-Tyr-Phe-NH2.
T30 sequence: QHYF

In the next data set the test system is T31, H-Gln-Tyr-Ala-OH.
T31 sequence: QYA

The next data set has as its system T32, H-Gln-Arg-Tyr-Phe-NH2.
T32 sequence: QRYF

The subject of a further data set is T33, H-Gln-Trp-Ala-NH2.
T33 sequence: QWA

In data set [7] the target is recombinant human glutaminyl cyclase (QC, EC 2.3.2.5) (human) (UniProt Q16769). In words: competitive inhibition of the human QC catalyzed reaction, 30° C, 0.05 M Tris-HCl pH 8.0, 5 mM EDTA.
recombinant human glutaminyl cyclase (QC, EC 2.3.2.5) (human), sequence (Q16769 29-361 limits assumed): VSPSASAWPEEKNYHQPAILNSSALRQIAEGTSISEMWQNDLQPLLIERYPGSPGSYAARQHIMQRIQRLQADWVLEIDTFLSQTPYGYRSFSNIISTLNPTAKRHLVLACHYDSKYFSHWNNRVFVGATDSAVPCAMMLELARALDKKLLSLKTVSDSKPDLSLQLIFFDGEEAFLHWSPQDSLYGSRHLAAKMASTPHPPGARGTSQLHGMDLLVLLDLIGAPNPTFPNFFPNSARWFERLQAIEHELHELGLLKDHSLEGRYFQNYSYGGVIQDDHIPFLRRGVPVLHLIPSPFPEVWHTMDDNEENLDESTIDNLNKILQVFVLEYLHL

Take “glutaminyl cyclase from Carica papaya latex”: the “KM (substrate conversion by QC)” value in data set [1] is “KM-values of 240±14 µM and 133±5 µM for human and papaya QC, respectively”; in the data set with H-Gln-Gly-Pro-OH, 333 µM; in the data set on H-Gln-Ala-Ala-NH2 it was 164 µM; in the data set with H-Gln-Gln-Tyr-Phe-NH2, 45 µM; in the data set on H-Gln-Ser-Tyr-Phe-NH2, 135 µM; with H-Gln-Glu-Ala-Phe-NH2 it was 81 µM. Besides, the KM (substrate conversion by QC) in the data set on H-Gln-Glu-OH was found to be 106 µM; in the data set on H-Gln-Glu-Asp-Leu-NH2 it was 107 µM; in data set [3], 216 µM; in the data set on H-Gln-Glu-Tyr-Ala-NH2 it was 113 µM; in the data set on H-Gln-Asn-Gly-Ile-NH2, 153 µM; in the data set on H-Gln-Lys-Arg-Leu-NH2, 118 µM. Further, the KM (substrate conversion by QC) amounted to 232 µM in data set [Gln^1]-FPP; 158 µM with H-Gln-Ala-OH; 103 µM with H-Gln-Glu-Tyr-NH2; 212 µM with H-Gln-Ala-NH2; 123 µM with H-Gln-Arg-Gly-Ile-NH2; 149 µM with H-Gln-Pro-Tyr-Phe-NH2. The KM (substrate conversion by QC) in data set [5] was 197 µM; in [6], “KM=3.1±0.3 mM”; in data set [Gln^1]-Gastrin, 34 µM; in [Gln^1]-GnRH it was 169 µM; with H-Gln-Glu-Ala-Ala-NH2 it was 102 µM; with H-Gln-Gly-OH it was 641 µM. The KM (substrate conversion by QC) with H-Gln-Gln-OH was 44 µM; with H-Gln-Glu-Tyr-Phe-NH2 it was 100 µM; in the data set on H-Gln-Phe-Ala-NH2, 111 µM; with H-Gln-His-Tyr-Phe-NH2, 92 µM; with H-Gln-Tyr-Ala-OH, 63 µM; in the data set with H-Gln-Arg-Tyr-Phe-NH2 it was 124 µM. Besides, the figures for the KM (substrate conversion by QC) (in data set [Gln^1]-Neurotensin; with H-Gln-Trp-Ala-NH2) were 40 µM and 78 µM, respectively. Besides, the “substrate conversion, determined qualitatively by MALDI-TOF” value in data set [2] and in data set [Gln^3]-glucagon(3-29) was “*” in each case. Further, the KM (0.05 M Tricine-NaOH, pH 8.0) in the data set with H-Gln-Glu-OH was found to be 0.098 mM; with H-Gln-Glu-Asp-Leu-NH2, 0.109 mM; with H-Gln-Lys-Arg-Leu-NH2, 0.102 mM; in the data set on H-Gln-Ala-OH it was 0.137 mM; in the data set on H-Gln-Arg-Gly-Ile-NH2, 0.106 mM; in the data set on H-Gln-Trp-Ala-NH2 it was 0.079 mM. For the same substance, the KM (0.05 M Tricine-NaOH, pH 8.0, 0.5 M KCl) with H-Gln-Glu-OH amounted to 0.094 mM; with H-Gln-Glu-Asp-Leu-NH2 it was 0.094 mM; in the data set on H-Gln-Lys-Arg-Leu-NH2, 0.053 mM; with H-Gln-Ala-OH, 0.143 mM; in the data set on H-Gln-Arg-Gly-Ile-NH2, 0.065 mM; in the data set on H-Gln-Trp-Ala-NH2 it was 0.072 mM. Also, the “conversion to the pyroglutamyl peptide (MALDI-TOF)” value in data set [4] was “The methylated glutaminyl residue was only converted into a pyroglutamyl residue by papaya QC”.

Take H-His-Trp-OH (peptide): the Ki – broadly, a measure of affinity in units of concentration, obtained from inhibition or displacement – in data set [7] was determined as 600 µM.
